This passage reports Ki results from patent US20030119169A1 (IDUN PHARMACEUTICALS, published 2003).

In experiment [1] the target is T1, Mch3α, bacterially expressed recombinant active enzyme (human, UniProt P55210 24-303, limits assumed).
T1 construct: Expressed in E. coli as a GST fusion (Mch3α1 or Mch3α2); also called recombinant Mch3α
T1 sequence: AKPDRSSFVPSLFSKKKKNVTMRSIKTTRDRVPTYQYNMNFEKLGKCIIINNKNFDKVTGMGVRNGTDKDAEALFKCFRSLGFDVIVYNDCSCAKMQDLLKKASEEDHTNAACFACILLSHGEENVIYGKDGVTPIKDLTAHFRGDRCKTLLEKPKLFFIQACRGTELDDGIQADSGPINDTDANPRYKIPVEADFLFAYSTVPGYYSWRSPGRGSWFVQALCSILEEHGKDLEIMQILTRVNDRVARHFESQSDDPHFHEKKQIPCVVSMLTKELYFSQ
The experiment in a line: inhibition of hydrolysis of 50 µM DEVD-AMC, continuous fluorometric assay, bacterial lysate, 30 min preincubation.

Experiment [2] has as its target T2, CPP32, bacterially expressed recombinant active enzyme (human, UniProt P42574 29-277, limits assumed).
T2 construct: Bacterially expressed (as a GST fusion, as described for Mch3) and used as bacterial lysate; also called recombinant CPP32
T2 sequence (looked up): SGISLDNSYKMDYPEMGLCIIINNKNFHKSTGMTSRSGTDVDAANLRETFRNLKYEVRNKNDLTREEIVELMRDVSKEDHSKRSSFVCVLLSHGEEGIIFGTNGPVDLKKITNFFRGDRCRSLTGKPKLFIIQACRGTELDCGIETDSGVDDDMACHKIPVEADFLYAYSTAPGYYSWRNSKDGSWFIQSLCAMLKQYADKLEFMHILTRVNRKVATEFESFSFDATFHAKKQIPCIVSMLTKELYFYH
The experiment in a line: inhibition of hydrolysis of 10 µM DEVD-AMC, continuous fluorometric assay, bacterial lysate, 30 min preincubation.

No end group written: not given here.

By Ki is commonly meant the equilibrium dissociation constant of an inhibitor or competing ligand from its target. Consider DEVD-aldehyde (also called DEVD-CHO) [tetrapeptide DEVD aldehyde], for which the values for the Ki in experiment [1] and in experiment [2] were 1.8 nM and 0.59 nM, respectively.
